Reference: US20160017031A1

Legend:
[1] = target: HLA-A2 (HLA-A*0201) class I molecule without a defined test peptide (human); experiment: cell-based or functional assay
[2] = target: GVL peptide-HLA-A2 (hCG beta 47-55 peptide … in HLA-A2 with beta-2 microglobulin) (human); experiment: flow cytometry, T2 cells pulsed with 50 to 0.1 µg/ml GVL peptide
[3] = target: GVL peptide-HLA-A2 (hCG beta 47-55 peptide … in HLA-A2 with beta-2 microglobulin) (human); experiment: cell-based or functional assay
[4] = target: TMT peptide-HLA-A2 (hCG beta 40-48 peptide … in HLA-A2 with beta-2 microglobulin) (human); experiment: cell-based or functional assay
[5] = target: HLA-A2 (HLA-A*0201) class I molecule without a defined test peptide (human); experiment: flow cytometry, unpulsed T2 cells, 1 µg per stain
[6] = target: GVL peptide-HLA-A2 (hCG beta 47-55 peptide … in HLA-A2 with beta-2 microglobulin) (human); experiment: flow cytometry, GVL-pulsed T2 cells, 1 µg antibody
[7] = target: GVL peptide-HLA-A2 (hCG beta 47-55 peptide … in HLA-A2 with beta-2 microglobulin) (human); experiment: flow cytometry, GVL-pulsed T2 cells, 1 µg per stain
[8] = target: TMT peptide-HLA-A2 (hCG beta 40-48 peptide … in HLA-A2 with beta-2 microglobulin) (human); experiment: flow cytometry, TMT-pulsed T2 cells, 1 µg per stain
[9] = target: VLQ peptide-HLA-A2 (hCG beta peptide … in HLA-A2 with beta-2 microglobulin) (human); experiment: flow cytometry, VLQ-pulsed T2 cells, 1 µg per stain
[10] = target: GVL peptide-HLA-A2 (hCG beta 47-55 peptide … in HLA-A2 with beta-2 microglobulin) (human); experiment: flow cytometry, GVL-pulsed T2 cells, 0.01 µg antibody

| Substance | CDC specific lysis of GVL-pulsed T2 cells [1] [%] | MFI [2] [MFI] | ADCC of MDA-231 cells, human PBMC, E:T 20:1 [3] [%] | ADCC of MDA-MB-231 cells, human PBMC, E:T 30:1, 10 µg/ml 3.2G1 [3] [%] | ADCC of MDA-MB-231 cells, human PBMC, E:T 30:1, 10 µg/ml 3.2G1 (average) [3] [%] | CDC specific lysis of T2 cells pulsed with 50 to 0.1 µg/ml GVL peptide [3] [%] | GVL peptide concentration giving half-maximal CDC lysis [3] [µg/mL] | complement-dependent cytolysis (CDC) of TMT-pulsed T2 cells [4] [%] | MFI [5] [MFI] | MFI [6] [MFI] | MFI [7] [MFI] | MFI [8] [MFI] | MFI [9] [MFI] | MFI [10] [MFI] |
| --- | --- | --- | --- | --- | --- | --- | --- | --- | --- | --- | --- | --- | --- | --- |
| BB7.2 monoclonal antibody (anti-HLA-A2) | 53 to 70 | 250 to 350 |  |  |  |  |  |  |  |  |  |  |  |  |
| RL4B (antibody) |  | 10 to 150 | 6.4 to 13.4 | 6.8 to 9.6 | 8.7 | 6 to 73 | 6 | 2 | 9 | 388 | 141 | 7.5 | 7.3 | 14.3 |
